Data on one molecule can be found in paper PMC10679500, “Posttranslational modification and heme cavity architecture of human eosinophil peroxidase—insights from first crystal structure and biochemical characterization” (The Journal of Biological Chemistry, 2023).

The target in this experiment is T1, eosinophil peroxidase heavy chain (human, UniProt P11678 251-715, Glu380 ester-linked to the heme cofactor (hydroxymethyl group on pyrrole ring A); N-glycans at Asn327 and Asn363).
T1 construct: human eosinophil peroxidase (EPO), C-terminal heavy chain of the mature enzyme; G250/V251-T715; N-terminus heterogeneous (G250 or V251); first resolved residue in the crystal is Val251; One of the two polypeptides of mature leukocyte EPO; part of the sample may begin at G250; A mixture of glycoforms was crystallized; also called EPO H-chain; HC
T1 sequence (looked up): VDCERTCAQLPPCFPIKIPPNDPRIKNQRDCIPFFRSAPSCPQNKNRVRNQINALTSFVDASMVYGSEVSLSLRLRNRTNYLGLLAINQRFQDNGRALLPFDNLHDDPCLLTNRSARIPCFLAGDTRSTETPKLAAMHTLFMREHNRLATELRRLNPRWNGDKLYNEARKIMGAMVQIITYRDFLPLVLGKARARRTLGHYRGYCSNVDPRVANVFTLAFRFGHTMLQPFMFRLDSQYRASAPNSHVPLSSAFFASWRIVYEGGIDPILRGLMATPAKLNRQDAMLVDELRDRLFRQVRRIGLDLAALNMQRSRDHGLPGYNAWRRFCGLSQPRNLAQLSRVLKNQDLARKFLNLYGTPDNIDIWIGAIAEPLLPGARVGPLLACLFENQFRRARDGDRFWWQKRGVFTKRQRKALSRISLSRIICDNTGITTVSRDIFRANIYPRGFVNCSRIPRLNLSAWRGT
Description: crystal structure; mixture of EPO glycoforms from human leukocytes, 10 mg/ml in 5 mM phosphate pH 7.0; crystallized in 0.2 M trisodium citrate pH 4.1, 20% (w/v) PEG, vapor diffusion, 22 °C; 1.6 Å; one monomer per asymmetric unit. The settings on record: both partners purified.

B1: eosinophil peroxidase light chain (domain or fragment)
chain: not shown
modifications: Asp232 ester-linked to the heme cofactor (hydroxymethyl group on pyrrole ring C)
notes: human eosinophil peroxidase (EPO), N-terminal light chain of the mature enzyme after removal of signal peptide, propeptide (18-139) and the peptide V/AFTA/G; R140-R244/V245; C-terminus heterogeneous by MS (77.2% arginine, 23.8% valine as terminal residue); last resolved residue in the crystal is Arg244; One of the two polypeptides of mature leukocyte EPO; a minor part of the sample ends at V245; …
Turning to B1, the binding result is reported as “binds”.
